Laboratory results reported in patent publication US7666414B2, “Methods for treating prostate cancer using modified antibodies to prostate-specific membrane antigen” (Cornell Research Foundation, Inc., priority 2001, dated 2010).

System: metastatic androgen-independent prostate cancer
Test: Phase 1 dose-escalating trial of DM1 conjugated deJ591
Assay type: in vivo, human
Description: Based upon emerging clinical safety and PK, repeat dosing at four week intervals was subsequently permitted.
DLT is defined as the occurrence of one or more of the following:
• Grade 4 thrombocytopenia (platelet count <10,000/mm3) • Requirement for platelet transfusion and/or other methods to increase platelet count • Febrile neutropenia (ANC <1000/mm^3 concurrent with a temperature >38.5° C.). (Per the Infection/Febrile Neutropenia subsection of the NCI CTC version 2.0, febrile neutropenia is, by definition, a >Grade 3 toxicity) • Grade 4 neutropenia without fever of >7 days duration • Grade 3 neutropenia requiring granulocyte colony-stimulating factor (G-CSF) administration • Grade 4 anemia (hemoglobin <6.5 g/dL) • Grade 3 anemia (hemoglobin 6.5-<8.0 g/dL) in a subject receiving EpogenÒNon-hematologic • Any Grade 3 non-hematologic toxicity considered by the investigator to be possibly related to study drug MTD is defined as the highest dose level with an observed incidence of DLT in no more than 1 out of 6 subjects.
There will be a 4 week (28 days±2 days) interval between dose administrations. […] Subjects will receive the same dose administered on day 1 (Visit 1) of their first infusion.
The starting dose is 18 mg/m2. Subjects will be followed for 3 weeks after the first dose to determine dose escalation. Dose escalation will continue until DLT and MTD are determined. Two phases of dose escalation will be used. In the first phase, one subject will be enrolled at each dose level. In the second phase, three subjects will be enrolled at each dose level. The planned dose increments are 80%, 60%, 40%, 30%, 30%, 30%, 30%, 30% and 30% above the previous dose, with a total of ten dose levels planned. All dose increments will be adjusted to 30% above the previous dose if DLT or two or more occurrences of non dose-limiting grade 2 or greater drug-related toxicity (NDLT) are observed in subjects treated at any of the first three dose levels. Non dose-limiting grade 2 or greater toxicity includes grade 2 or 3 hematologic toxicity and grade 2 non-hematologic toxicity. Drug-related toxicity is toxicity considered by the investigator to be related to study drug. In the first phase, one subject will be enrolled at the lowest dose level and observed for 3 weeks to ensure that there are no significant adverse events. If no DLT or NDLT is observed during the 3 week observation period, dose escalation will continue and a new subject will be enrolled at the next predefined dose level. Single subjects will continue to be enrolled and observed at sequentially increasing dose levels until one subject experiences a DLT or a NDLT. If DLT is observed in a single subject at any dose level in the first phase, the second phase will begin, where 3 subjects per dose level will be enrolled. The dose assignment for the first subject enrolled in the second phase will be one dose level lower than the dose level at which DLT is observed. If NDLT is observed in the subject treated at any of the first three dose levels, dose escalation will stop and two more subjects will be enrolled at the current dose level. Subsequent dose escalation and enrollment will be determined by the number and grade of toxicities observed in these two additional subjects. If DLT or NDLT is not observed, the first phase will continue. Dose escalation will proceed to the next predefined dose level, with one subject enrolled at that dose level. If DLT is observed in one subject, three subjects will be enrolled at the current dose level and the second phase will begin. The dose increments for subsequent dose escalations will be 30% for the remainder of the study. If DLT is observed in both subjects, dose escalation will stop and three subjects will be enrolled at the previous dose level, marking the beginning of the second phase. The previous dose level will be evaluated as potential MTD. No further dose escalation will occur. […]

deJ591-DM1: deJ591 conjugated via SPP disulfide linker to the maytansinoid DM1, DM1/antibody ratio about 3.5
tolerability (18 to 343 mg/m^2): well-tolerated in the majority of patients | MTD (23 patients, 18 to 343 mg/m^2): ≥ 343 mg/m^2 | DLT (highest dose level 343 mg/m^2): Only one DLT, an uncomplicated febrile neutropenia | PK of antibody related analytes (J591-DM1, Total J591 and free J591) (in vivo): typical of monoclonal antibodies | Plasma levels of DM1-SH (in vivo): detectable | anti-antibodies (in vivo): No anti-antibodies against DM1 conjugated deJ591, deJ591 or DM1 were detected | disease response (one patient, 264 mg/m^2): PR by RECIST criteria | durable decrease in PSA (one patient, 264 mg/m^2): 70% | sustained PSA decline (one patient, 343 mg/m^2): > 50%
